According to publication PMC10995623, “Apple E3 ligase MdPUB23 mediates ubiquitin-dependent degradation of MdABI5 to delay ABA-triggered leaf senescence”:

Biological target: T1, MdABI5 (Malus domestica? (apple), UniProt A0A498IDK6 1-461)
T1 sequence: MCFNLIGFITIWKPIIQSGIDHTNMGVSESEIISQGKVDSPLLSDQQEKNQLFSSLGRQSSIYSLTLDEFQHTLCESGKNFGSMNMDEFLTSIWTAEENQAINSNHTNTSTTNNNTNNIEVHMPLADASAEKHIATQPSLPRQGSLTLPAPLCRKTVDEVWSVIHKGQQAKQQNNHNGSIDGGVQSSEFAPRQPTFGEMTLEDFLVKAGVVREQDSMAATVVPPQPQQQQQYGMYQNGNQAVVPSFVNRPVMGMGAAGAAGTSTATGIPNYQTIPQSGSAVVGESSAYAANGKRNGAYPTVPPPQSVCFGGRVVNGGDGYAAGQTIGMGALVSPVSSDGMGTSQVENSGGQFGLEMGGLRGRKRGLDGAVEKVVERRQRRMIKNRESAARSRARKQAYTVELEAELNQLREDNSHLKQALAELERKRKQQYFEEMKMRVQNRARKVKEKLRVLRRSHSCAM
Experiment: EMSA; MdABI5 alone; Beyotime EMSA/Gel-Shift Kit binding buffer (composition, salt and pH not given), 24 C, 30 min, biotin-labelled probe
Details: protein: recombinant; chain copies: 2; label: biotin; blunt

B1: MdSAG18 promoter probe (dsDNA)
DNA 1: GGGGGGGGTCCACGTGGGTCACCAAC
DNA 2: GTTGGTGACCCACGTGGACCCCCCCC
**Q.** Does B1 bind?
**A.** no binding
